# Experiments:
# His-RBD WT [1] = molecular target: T1, His-RBD WT (Influenza A virus A/Brevig …, UniProt Q99AU3 1-85); experiment: fluorescence polarization; biphasic, second transition; […], pH 8.0, 1 h at room temperature; […]; conditions: protein: recombinant; tags: N-term 10xHis; chain copies: 2; label: 5'-FAM (FITC) on both strands; blunt
# His-RBD WT [2] = molecular target: T1, His-RBD WT; experiment: fluorescence polarization; biphasic, first transition; […], pH 8.0, 1 h at room temperature; […]; conditions: protein: recombinant; tags: N-term 10xHis; chain copies: 2; label: 5'-FAM (FITC) on both strands; blunt
# Udorn His-GST-ED WT [3] = molecular target: T2, Udorn His-GST-ED WT (Influenza A virus A/Udorn/307/1972, UniProt P03495 86-237); experiment: fluorescence polarization; protein prep B, A260/280 0.85; […], pH 8.0, 1 h at room temperature; […]; conditions: protein: recombinant; tags: N-term 10xHis-GST; label: 5'-FAM (FITC) on both strands; blunt
# T2 sequence (P03495 86-237): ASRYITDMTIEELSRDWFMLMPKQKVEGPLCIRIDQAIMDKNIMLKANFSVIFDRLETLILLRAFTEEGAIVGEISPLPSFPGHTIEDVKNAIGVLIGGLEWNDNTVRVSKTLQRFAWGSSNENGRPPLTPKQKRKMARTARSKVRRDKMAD
# His-GST-RBD WT [4] = molecular target: T3, His-GST-RBD WT (Influenza A virus A/Brevig …, UniProt Q99AU3 1-85); experiment: EMSA (fEMSA); […], pH 8.0, 1 h at room temperature; […]; conditions: protein: recombinant; tags: N-term 10xHis-GST; chain copies: 2; label: 5'-FAM (FITC) on both strands; blunt
# T3 sequence (Q99AU3 1-85): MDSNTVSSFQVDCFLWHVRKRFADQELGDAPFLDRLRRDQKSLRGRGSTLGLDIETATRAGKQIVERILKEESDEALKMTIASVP
# His-RBD WT [5] = molecular target: T1, His-RBD WT; experiment: as above; conditions: protein: recombinant; tags: N-term 10xHis; chain copies: 2; label: 5'-FAM (FITC) on both strands; blunt
# His-GST-ED WT [6] = molecular target: T4, His-GST-ED WT (Influenza A virus A/Brevig …, UniProt Q99AU3 86-230); experiment: as above; conditions: protein: recombinant; tags: N-term 10xHis-GST; chain copies: 3; label: 5'-FAM (FITC) on both strands; blunt
# T4 sequence (Q99AU3 86-230): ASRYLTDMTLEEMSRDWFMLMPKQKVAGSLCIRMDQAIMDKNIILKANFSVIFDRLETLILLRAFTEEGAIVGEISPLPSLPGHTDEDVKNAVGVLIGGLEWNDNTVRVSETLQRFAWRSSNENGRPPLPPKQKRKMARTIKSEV
# GST-RBD WT [7] = molecular target: T5, GST-RBD WT (Influenza A virus A/Brevig …, UniProt Q99AU3 1-85); experiment: as above; conditions: protein: recombinant; tags: GST; chain copies: 2; label: 5'-FAM (FITC) on both strands; blunt
# T5 sequence (Q99AU3 1-85): as the sequence (Q99AU3 1-85) above
# Udorn His-GST-ED WT [8] = molecular target: T2, Udorn His-GST-ED WT; experiment: as above; conditions: protein: recombinant; tags: N-term 10xHis-GST; label: 5'-FAM (FITC) on both strands; blunt
# His-GST-RBD WT [9] = molecular target: T3, His-GST-RBD WT; experiment: fluorescence polarization; […], pH 8.0, 1 h at room temperature; […]; conditions: protein: recombinant; tags: N-term 10xHis-GST; chain copies: 2; label: 5'-FAM (FITC) on both strands; blunt
# His-GST-ED WT [10] = molecular target: T4, His-GST-ED WT; experiment: as above; conditions: protein: recombinant; tags: N-term 10xHis-GST; chain copies: 3; label: 5'-FAM (FITC) on both strands; blunt
# GST-RBD WT [11] = molecular target: T5, GST-RBD WT; experiment: as above; conditions: protein: recombinant; tags: GST; chain copies: 2; label: 5'-FAM (FITC) on both strands; blunt
# Udorn His-GST-ED WT [12] = molecular target: T2, Udorn His-GST-ED WT; experiment: as above; conditions: protein: recombinant; tags: N-term 10xHis-GST; label: 5'-FAM (FITC) on both strands; blunt
# T1 sequence (Q99AU3 1-85): as above
binder,measurement,setting,value
FAM-dsRNA 16 bp (dsRNA) RNA 1: CCAUCCUCUACAGGCG RNA 2: CGCCUGUAGAGGAUGG,Kd,His-RBD WT [1],2160 ± 460 nM
same,Kd,His-RBD WT [2],83 ± 11 nM
same,Kd,Udorn His-GST-ED WT [3],196 ± 23 nM
same,Kd,His-GST-RBD WT [4],180 ± 42 nM
same,Kd,His-RBD WT [5],55 ± 16 nM
same,Kd,His-GST-ED WT [6],3500 ± 800 nM
same,Kd,GST-RBD WT [7],100 ± 32 nM
same,Kd,Udorn His-GST-ED WT [8],170 ± 35 nM
same,Kd,His-GST-RBD WT [9],125 ± 9 nM
same,Kd,His-GST-ED WT [10],1900 ± 250 nM
same,Kd,GST-RBD WT [11],76 ± 5 nM
same,Kd,Udorn His-GST-ED WT [12],180 ± 21 nM

# Reference: article PMC11997982
